From PMC2187783 come the findings set out here.

The target of assay [1] is PR97 chimeric class II beta chain (beta1 domain of DP, beta2 domain of DR) (human).
Assay [2] deals with RP97 chimeric class II beta chain (beta1 domain of DR, beta2 domain of DP) (human).

Turning to “HLA-DP alpha chain (from UniProt P20036 29-260) (natural protein)”, the values for the Table II, DPa Percent: percentage of cells binding the mAb SG465 in assay [1] and in assay [2] were 22% and 0%, respectively.
For “HLA-DR alpha chain (from UniProt P01903 26-254) (natural protein)”, the Table II, DRa Percent: percentage of cells binding the mAb SG465 in assay [1] turned out to be 0%; in assay [2] it was 54%.
